The values below come from US20180085455A1 (ISU ABXIS, published 2018).

Experiment [1] deals with ErbB3 on cancer cells (UniProt P21860 20-1342, limits assumed). As to the kind of experiment: cell-based or functional assay.
In experiment [2] the target is T1, recombinant human ErbB3 protein (R&D systems) (human, UniProt P21860 20-643).
T1 construct: Bought recombinant protein; also called HER3
As to the kind of experiment: BLI (Octet QK384), human ErbB3 immobilized on AR2G sensor, IgG at 12.5-50 nM. How it is done: After activation of carboxyl groups in 20 mM of 1-ethyl-3-(3-dimethylaminopropyl)carbodiimide hydrochloride (EDC) and 40 mM of N-hydroxysulfosuccinimide (sulfo-NHS) solution on an AR2G sensor (ForteBio), 10 μg/mL of human ErbB3 protein solution diluted with 10 mM of sodium acetate (pH 4.0) (ForteBio) was added to immobilize human ErbB3 protein onto the AR2G sensor. The AR2G sensor to which the human ErbB3 protein was immobilized and was treated with 1 M of ethanolamine (ForteBio) to inactivate the remaining unreacted carboxyl groups.
For orientation: In BLI a coated tip is dipped into the sample, and binding shifts an interference pattern.

Broadly, the Kd is the free concentration of one partner at which half of the binding sites on the other are occupied at equilibrium, for simple one-to-one binding. The koff is the rate constant with which the complex falls apart. Broadly, the kon is the rate constant with which the complex forms.

B1: 442M6 (antibody, V domains shown)
VH: EVQLLESGGGLVQPGGSLRLSCAASGFTFSDYDMSWVRQAPGKGLEWVSSIEPDSGSTDYADSVQGRFTISRDNSKNTLYLQMNSLRAEDTAVYYCAKDRHMWPEGPFDYWGQGTLVTVSS
VL: QSVLTQPPSASGTPGQRVTISCSGSSSNIGSNSGSWYQQLPGTAPKLLIYADNWRPSGVPDRFSGSKSGTSASLAISGLRSEDEADYYCAAWDSSLSGYVFGGGTKLTVLG
notes: IgG1 (Selexis 085 vector, CHO)
Turning to B1, in experiment [1], the “Inhibition of Akt phosphorylation, IC50 (HRG-stimulated MCF7 cells)” value (“Inhibition of Akt phosphorylation, IC50” below) was determined as 0.304 nM and the “Inhibition of ErbB3 phosphorylation, IC50 (HRG-stimulated MCF7 cells)” value (shortened to “Inhibition of ErbB3 phosphorylation”) came to 0.271 nM. Besides, in experiment [2], the Kd was 0.0201 nM, the koff was 1.95e-05 s⁻¹ and the kon was found to be 969000 M⁻¹ s⁻¹.

B2: 442S5 (antibody, V domains shown)
VH: EVQLLESGGGLVQPGGSLRLSCAASGFTFSDYDMSWVRQAPGKGLEWVSIIEPDSGSIYYADSVQGRFTISRDNSKNTLYLQMNSLRAEDTAVYYCAKDLHMGPEGPFDYWGQGTLVTVSS
VL: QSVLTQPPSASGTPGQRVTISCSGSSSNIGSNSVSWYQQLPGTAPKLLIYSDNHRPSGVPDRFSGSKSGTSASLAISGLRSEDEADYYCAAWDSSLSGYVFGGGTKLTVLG
notes: as for B1
Turning to B2, in experiment [1], the “Inhibition of Akt phosphorylation, IC50” value came out at 0.167 nM and the “Inhibition of ErbB3 phosphorylation” value was found to be 0.0854 nM. In addition, in experiment [2], the Kd was found to be 0.0175 nM, the koff was 2.74e-05 s⁻¹ and the kon was determined as 1.57e+06 M⁻¹ s⁻¹.

B3: 442S1 (antibody, V domains shown)
VH: EVQLLESGGGLVQPGGSLRLSCAASGFTFSDYDMSWVRQAPGKGLEWVSTIDLDSGSIYYADSVQGRFTISRDNSKNTLYLQMNSLRAEDTAVYYCAKDLHMGPEGPFDYWGQGTLVTVSS
VL: QSVLTQPPSASGTPGQRVTISCSGSSSNIGSNSVSWYQQLPGTAPKLLIYSDNHRPSGVPDRFSGSKSGTSASLAISGLRSEDEADYYCQGWDTSLSGHVFGGGTKLTVLG
notes: as for B1
For the molecule B3, in experiment [1], the “Inhibition of Akt phosphorylation, IC50” value is 0.239 nM and the “Inhibition of ErbB3 phosphorylation” value was 0.222 nM. Also, in experiment [2], the equilibrium dissociation constant (Kd) is < 0.001 nM, the koff was determined as 3.94e-07 s⁻¹ and the kon was found to be 522000 M⁻¹ s⁻¹.
